Values quoted from earlier work, collected in publication PMC2933916.

Target: S100B (UniProt P04271)

Kd: < 0.5 nM
Substance: S100B (from UniProt P04271)
